Reference: US20240166750A1
Each block holds one substance with its values, some of them ahead of it.

Columns and labels:
[1] = biological target: Recombinant human FcγRIIIa-V158 (human) (UniProt P08637); assay: SPR Biacore T200; antibody on protein A, FcγRIIIa-V158 analyte; 1:1 kinetic fit
[2] = biological target: Recombinant human FcγRIIIa-V158 (human) (UniProt P08637); assay: SPR Biacore T200; antibody on Protein A, FcγRIIIa-V158 analyte; 1:1 fit
[3] = biological target: Recombinant human FcγRIIIa-V158 (human) (UniProt P08637); assay: SPR Biacore T200
[4] = biological target: FcγRIIIa (V158) expressed on engineered Jurkat effector cells (UniProt P08637); assay: cell-based or functional assay
[5] = biological target: Recombinant human FcγRIIIa-V158 (human) (UniProt P08637); assay: SPR Carterra LSA; Fc on protein AG, hFcγRIIIa-V158 analyte; 1:1 kinetic fit
[6] = biological target: biotinylated recombinant human FcRn (human) (UniProt P55899); assay: FcRn affinity chromatography, pH gradient 5.5-9.5
[7] = biological target: biotinylated recombinant human FcRn (human) (UniProt P55899); assay: SPR Biacore T200, pH 7.4; steady-state RU at 1000 nM antibody; SD 5.4 RU
[8] = biological target: Recombinant human HPC4-tagged FcγRIIIa-V158 (human) (UniProt P08637); assay: SPR Biacore T200; receptor captured by anti-HPC4, antibody analyte; steady-state RU
[9] = biological target: biotinylated recombinant human FcRn (human) (UniProt P55899); assay: SPR Biacore T200, pH 6.0; biotin-FcRn on CAP chip, antibody analyte; bivalent fit, apparent KD; SD 10 nM
[10] = biological target: biotinylated recombinant human FcRn (human) (UniProt P55899); assay: SPR Biacore T200, pH 7.4; steady-state RU at 1000 nM antibody; SD 5.6 RU
[11] = biological target: biotinylated recombinant human FcRn (human) (UniProt P55899); assay: SPR Biacore T200, pH 6.0; biotin-FcRn on CAP chip, antibody analyte; bivalent fit, apparent KD; SD 47 nM
[12] = biological target: Recombinant human FcγRIIIa-V158 (human) (UniProt P08637); assay: SPR Biacore T200; antibody on Protein A, FcγRIIIa-V158 analyte; 1:1 fit; remark: listed apart in the source
[13] = biological target: biotinylated recombinant human FcRn (human) (UniProt P55899); assay: SPR Biacore T200, pH 7.4; steady-state RU at 1000 nM antibody; SD 0.2 RU
[14] = biological target: biotinylated recombinant human FcRn (human) (UniProt P55899); assay: SPR Biacore T200, pH 6.0; biotin-FcRn on CAP chip, antibody analyte; bivalent fit, apparent KD; SD 700 nM
[15] = biological target: biotinylated recombinant human FcRn (human) (UniProt P55899); assay: SPR Biacore T200, pH 6.0; biotin-FcRn on CAP chip, antibody analyte; bivalent fit, apparent KD; SD 240 nM
[16] = biological target: biotinylated recombinant human FcRn (human) (UniProt P55899); assay: SPR Biacore T200, pH 7.4; steady-state RU at 1000 nM antibody; SD 2.1 RU
[17] = biological target: biotinylated recombinant human FcRn (human) (UniProt P55899); assay: SPR Biacore T200, pH 7.4; steady-state RU at 1000 nM antibody; SD 3.3 RU
[18] = biological target: biotinylated recombinant human FcRn (human) (UniProt P55899); assay: SPR Biacore T200, pH 6.0; biotin-FcRn on CAP chip, antibody analyte; bivalent fit, apparent KD; SD 260 nM

- Fold KD WT [1]: 31 fold
- Kd [1]: 3.79 nM
- koff [1]: 0.00832 s⁻¹
- kon [1]: 2.2e+06 M⁻¹ s⁻¹
Substance: DE (R292C/V302C) antibody specific for protein 5 (TPP-35708)

- Kd [2]: 14 nM
- koff [2]: 0.006 s⁻¹
Substance: DE (S239D/I332E) antibody specific for protein 1 (human IgG1)

- fold higher affinity than the unmodified DE antibody [3]: 2.3 fold
- ADCC activity (ADCC reporter gene assay), fold vs DE antibody without modification [4]: 1.4 fold
- Kd [2]: 6 nM
- koff [2]: 0.002 s⁻¹
- kon [2]: 400000 M⁻¹ s⁻¹
Substance: DE (S239D/I332E) antibody specific for protein 1 containing oligomannose (human IgG1)

- Kd [5]: 230 nM
Substance: Fc fragment S298A, no kifunensine (from UniProt P01857 104-330)

- Kd [5]: 21 nM
Substance: Fc fragment S298A, with kifunensine (from UniProt P01857 104-330)

- Kd [5]: 86 nM
Substance: Fc fragment S298C, no kifunensine (from UniProt P01857 104-330)

- Kd [5]: 24 nM
Substance: Fc fragment S298C, with kifunensine (from UniProt P01857 104-330)

Substance: LS antibody specific for protein 3, with kifunensine
- pH of elution [6]: 7.81 pH
- RU (steady state, pH 7.4) [7]: 16.6 RU
- Fold Change (Kifunensine Treated vs Untreated) in FcγRIIIa Binding Affinity [8]: 1.75 fold
- Fold Change versus WT in FcγRIIIa Binding Affinity with Kifunensine Treatment [8]: 1.85 fold
- Kd [9]: 658 nM

Substance: LS antibody specific for protein 3, without kifunensine
- pH of elution [6]: 7.84 pH
- RU (steady state, pH 7.4) [10]: 19.4 RU
- Kd [11]: 534 nM

- Kd [2]: 540 nM
- koff [2]: 0.031 s⁻¹
- kon [2]: 60000 M⁻¹ s⁻¹
- Kd [12]: 557 nM
- koff [12]: 0.107 s⁻¹
- kon [12]: 190000 M⁻¹ s⁻¹
Substance: WT antibody specific for protein 1 (human monoclonal IgG1, mAb A)

- Kd [2]: 256 nM
- koff [2]: 0.017 s⁻¹
- kon [2]: 70000 M⁻¹ s⁻¹
Substance: WT antibody specific for protein 1 containing oligomannose (human IgG1)

- pH of elution [6]: 7.01 pH
- RU (steady state, pH 7.4) [13]: 0.5 RU
- Fold Change (Kifunensine Treated vs Untreated) in FcγRIIIa Binding Affinity [8]: 1.76 fold
- Fold Change versus WT in FcγRIIIa Binding Affinity with Kifunensine Treatment [8]: 1.76 fold
- Kd [14]: 3040 nM
Substance: WT antibody specific for protein 3, with kifunensine

- pH of elution [6]: 7.07 pH
- RU (steady state, pH 7.4) [13]: 0.8 RU
- Kd [15]: 2000 nM
Substance: WT antibody specific for protein 3, without kifunensine

- Kd [1]: 118 nM
Substance: WT antibody specific for protein 5 (TPP-23424)

- pH of elution [6]: 7.68 pH
- RU (steady state, pH 7.4) [16]: 9 RU
- Fold Change (Kifunensine Treated vs Untreated) in FcγRIIIa Binding Affinity [8]: 2.88 fold
- Fold Change versus WT in FcγRIIIa Binding Affinity with Kifunensine Treatment [8]: 1.26 fold
- Kd [15]: 1210 nM
Substance: YTE antibody specific for protein 3, with kifunensine

- pH of elution [6]: 7.74 pH
- RU (steady state, pH 7.4) [17]: 10.7 RU
- Kd [18]: 1270 nM
Substance: YTE antibody specific for protein 3, without kifunensine

- fold increase in receptor binding compared to DE antibody [3]: 3.5 fold
- ADCC activity (ADCC reporter gene assay), fold vs DE antibody without modification [4]: 3.2 fold
- Kd [12]: 4 nM
- koff [12]: 0.003 s⁻¹
- kon [12]: 750000 M⁻¹ s⁻¹
Substance: afucosylated DE (S239D/I332E) antibody specific for protein 1 (human IgG1)

- Fold KD WT [1]: 8 fold
- Kd [1]: 14.9 nM
- koff [1]: 0.00925 s⁻¹
- kon [1]: 622000 M⁻¹ s⁻¹
Substance: afucosylated antibody specific for protein 5 (Creative Biolabs)

- fold higher affinity than the unmodified DE antibody [3]: 1.8 fold
- Kd [2]: 8 nM
- koff [2]: 0.004 s⁻¹
- kon [2]: 480000 M⁻¹ s⁻¹
Substance: hypergalactosylated DE (S239D/I332E) antibody specific for protein 1 (human IgG1)
